Results published in article PMC4222845.

How the values were obtained:
[1] = target: CopNΔ84 (C. pneumoniae AR39); test: SEC; Superdex 200 10/300 GL, 10 mM Tris-HCl pH 7.5, 150 mM NaCl, 0.5 mL/min, 4°C; equivalent molar concentrations, incubated 15 minutes; molecular weight from BioRad gel-filtration standards
[2] = target: Scc3 (C. pneumoniae AR39); test: ITC
[3] = target: Scc3-CopNΔ84 complex (C. pneumoniae AR39); test: ITC

| Substance | stoichiometry N [1] | Kd [2] | Kd [3] |
| --- | --- | --- | --- |
| Scc3 (natural protein) | 1 | – | – |
| synthetic peptide (CopB residues 163–173) | – | 79 µM | 49 µM |
